Measured values from patent US20050089961A1 (NEUROMED PHARMACEUTICALS, published 2005).

Biological target: rat α1B+β1b calcium channel (N-type calcium channel) (rat, UniProt Q02294 1-2336; P54283 1-597)
Assay: cell-based or functional assay

rat α1B+β1b calcium channel (N-type calcium channel), sequence (Q02294 whole entry, chain 1 of 2): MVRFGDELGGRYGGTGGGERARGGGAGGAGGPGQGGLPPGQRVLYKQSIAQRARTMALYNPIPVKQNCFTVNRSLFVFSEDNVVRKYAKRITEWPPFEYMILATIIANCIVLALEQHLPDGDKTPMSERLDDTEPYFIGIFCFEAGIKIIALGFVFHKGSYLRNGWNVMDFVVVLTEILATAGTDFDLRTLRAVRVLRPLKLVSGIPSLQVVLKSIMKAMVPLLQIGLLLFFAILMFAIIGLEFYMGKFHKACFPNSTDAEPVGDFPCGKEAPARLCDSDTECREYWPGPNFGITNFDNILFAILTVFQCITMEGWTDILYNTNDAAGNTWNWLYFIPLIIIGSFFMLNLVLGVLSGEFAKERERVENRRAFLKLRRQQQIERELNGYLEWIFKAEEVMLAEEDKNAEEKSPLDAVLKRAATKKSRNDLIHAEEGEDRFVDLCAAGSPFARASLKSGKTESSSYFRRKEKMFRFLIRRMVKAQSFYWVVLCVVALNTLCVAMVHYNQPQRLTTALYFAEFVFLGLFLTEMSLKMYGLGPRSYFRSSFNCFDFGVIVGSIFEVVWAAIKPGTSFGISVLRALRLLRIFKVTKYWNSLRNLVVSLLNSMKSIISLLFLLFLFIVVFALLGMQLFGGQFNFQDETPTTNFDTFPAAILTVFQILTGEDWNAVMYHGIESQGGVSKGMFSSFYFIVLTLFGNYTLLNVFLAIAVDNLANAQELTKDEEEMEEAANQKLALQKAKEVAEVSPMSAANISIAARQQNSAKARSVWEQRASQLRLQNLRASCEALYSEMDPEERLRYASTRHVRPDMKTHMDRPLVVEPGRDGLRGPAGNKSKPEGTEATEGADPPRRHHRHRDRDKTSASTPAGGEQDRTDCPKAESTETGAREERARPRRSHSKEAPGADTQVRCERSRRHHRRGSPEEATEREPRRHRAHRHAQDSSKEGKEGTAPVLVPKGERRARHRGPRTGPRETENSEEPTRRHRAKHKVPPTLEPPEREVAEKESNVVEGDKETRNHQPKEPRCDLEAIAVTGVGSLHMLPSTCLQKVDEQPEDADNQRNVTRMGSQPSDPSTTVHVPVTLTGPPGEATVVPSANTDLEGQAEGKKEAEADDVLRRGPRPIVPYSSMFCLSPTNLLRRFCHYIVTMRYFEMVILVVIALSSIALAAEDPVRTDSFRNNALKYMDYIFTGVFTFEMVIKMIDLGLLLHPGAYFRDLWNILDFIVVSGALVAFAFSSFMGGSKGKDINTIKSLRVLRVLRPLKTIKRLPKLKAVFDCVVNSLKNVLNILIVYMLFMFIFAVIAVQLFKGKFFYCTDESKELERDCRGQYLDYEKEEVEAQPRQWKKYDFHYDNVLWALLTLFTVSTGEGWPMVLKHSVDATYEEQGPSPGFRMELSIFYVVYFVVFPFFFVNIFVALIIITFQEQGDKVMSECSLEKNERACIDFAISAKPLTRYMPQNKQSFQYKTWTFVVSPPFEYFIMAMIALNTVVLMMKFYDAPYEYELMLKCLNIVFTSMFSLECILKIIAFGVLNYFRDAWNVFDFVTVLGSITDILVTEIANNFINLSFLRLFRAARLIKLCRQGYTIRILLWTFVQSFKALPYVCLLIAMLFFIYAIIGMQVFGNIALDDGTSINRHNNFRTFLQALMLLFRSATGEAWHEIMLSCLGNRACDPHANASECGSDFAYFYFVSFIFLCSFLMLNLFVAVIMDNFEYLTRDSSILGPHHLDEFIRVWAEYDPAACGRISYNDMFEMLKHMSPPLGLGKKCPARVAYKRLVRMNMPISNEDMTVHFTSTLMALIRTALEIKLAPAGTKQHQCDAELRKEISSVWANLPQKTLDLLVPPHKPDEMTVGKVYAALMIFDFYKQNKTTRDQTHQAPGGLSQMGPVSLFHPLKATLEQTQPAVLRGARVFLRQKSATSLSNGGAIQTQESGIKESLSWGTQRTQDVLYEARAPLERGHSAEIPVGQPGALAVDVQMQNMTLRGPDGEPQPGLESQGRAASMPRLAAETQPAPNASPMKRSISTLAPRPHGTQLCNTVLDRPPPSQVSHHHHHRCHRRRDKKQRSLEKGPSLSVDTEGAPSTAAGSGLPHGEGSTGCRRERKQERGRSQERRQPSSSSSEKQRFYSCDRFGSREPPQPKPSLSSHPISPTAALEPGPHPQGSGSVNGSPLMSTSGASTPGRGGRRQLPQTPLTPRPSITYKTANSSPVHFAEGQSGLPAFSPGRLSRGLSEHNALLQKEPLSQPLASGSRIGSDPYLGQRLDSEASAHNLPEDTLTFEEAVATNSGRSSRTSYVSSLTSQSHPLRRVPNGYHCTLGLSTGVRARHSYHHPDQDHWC
rat α1B+β1b calcium channel (N-type calcium channel), sequence (P54283 whole entry, chain 2 of 2): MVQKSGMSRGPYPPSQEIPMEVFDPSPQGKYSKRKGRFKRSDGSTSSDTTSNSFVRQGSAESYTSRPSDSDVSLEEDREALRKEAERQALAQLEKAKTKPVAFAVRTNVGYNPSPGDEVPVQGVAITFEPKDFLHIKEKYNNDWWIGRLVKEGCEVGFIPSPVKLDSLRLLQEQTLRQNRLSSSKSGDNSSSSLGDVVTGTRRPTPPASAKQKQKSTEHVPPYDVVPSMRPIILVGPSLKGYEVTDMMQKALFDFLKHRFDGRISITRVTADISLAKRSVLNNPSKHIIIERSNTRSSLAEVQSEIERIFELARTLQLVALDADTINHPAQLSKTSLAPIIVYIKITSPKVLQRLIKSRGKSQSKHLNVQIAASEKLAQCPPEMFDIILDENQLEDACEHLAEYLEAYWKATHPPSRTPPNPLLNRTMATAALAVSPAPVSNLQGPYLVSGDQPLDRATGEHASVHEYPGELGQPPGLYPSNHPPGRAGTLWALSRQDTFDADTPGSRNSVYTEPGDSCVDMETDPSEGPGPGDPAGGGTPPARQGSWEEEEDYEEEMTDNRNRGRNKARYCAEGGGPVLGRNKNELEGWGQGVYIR

B1: full-length chicken α2δ-1 calcium channel subunit (other)
chain: HSSEGPFPSPTTIKSWVDKMQEDLITLARTASGVEQLAAIYLKNKDLYTVEANNPRQLVEIAARDIEKLLSNRSKALVRLAKEAEKYQASHQWRDEFGNNDIIYYNAKDDQNDPEKNDTESGSQRIRPVFEEDPVFRRQTSYQHAAVHIPTDIYEGSTIVLNELNWTAALDDVFKRNREEDPTLLWQVFGSATGLARYYPASPWVDNSRTPNKIDLYDVRRRPWYIQGAASPKDMLILVDASGSVSGLTLKLIRTSVIEMLETLSDDDFVNVVSFNNNAQNVSCFNHLVQANVRNKKKLKEAVDKISAKGITDYKKGFSYAFEQLLNHSVSRANCNKIIMLFTDGGEERAQEIFHKYNEDKKVRVFTFSVGQHNYDKGPIQWMACENKGYYYEIPSIGAIRINTQEYLDVLGRPMVLAGEKAKQVQWTNVYLDALELGLVITGTLPVFNLTKEQNGKINQLILGVMGVDVSLEDIKKLTPRFTLCPNGYYFAIDPNGYVLLHPNLQPKNPKSQEPVTLDFLDAELENDIKVEIRKKMIDGESGEKTFETLVKSQDERYIDKGNRTYTWTAVNGTDYSLALVLPSYSFYYIKAKIEEPITQARLEIKKDSETLKIDHFDEAGYTFIAPREYCTDVKKSENNTEFLLNFNEFIDRNTPSSPSCNTDMVIRVLLDAGFTNELAQNYWSKLYLDGVVAQFVVTDGGITRVFPKRAGEDWLENAETYEVSFYKRSLDNDNYIFTAPYYNKSGANSYESGIMVSKAVEITINGKLLKPAVVGIKIDAMKWMENFTTTTIKSLCNSEICGCEKNSMHVDCVILDDGGFLLMSNRDEYTHQIGRFFGEIDPGLMRNLINMSLYAFNKSYDYQSVCDPEEEPKQGAGLRSAYVPTIADILQLGWWASAAAWSILQQLFLSLTFPRFLEAADMEDDDFSTALPKTSCITEQTQYFFENDDKSFIGIVDCINCSRLYHAEKISNTNLVFIISDSQLLCRSCDPKPLMQAEKPDEGPNPCEMVKQPRYRKGPDVCFDEAKQEDSADCGGASGLSPSLWSMVGIQLVLLWLLSGSRHYQL
current density (Ipeak/cell capacitance), whole-cell patch clamp, fold increase on coexpression: ~10 fold
